Source: the supplement of paper PMC12764529
± gives the half width of the 95% confidence interval.

Key:
[1] = folding stability dG unfold from trypsin proteolysis; higher = more stable
Method in brief: (§1)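 Mini-proteins designed to be under 80 residues and free of cysteine were carried in a PA-tagged cDNA display construct and digested with trypsin and with chymotrypsin. Each protease was applied at 11 threefold-diluted concentrations, alongside a no-protease condition, before sequencing. K50 came from Bayesian fitting of the sequencing counts, and unfolding free energy was obtained by comparing it with a sequence-predicted unfolded-state K50 and a shared folded-state K50, for each protease separately or for both together. Designs were retained only if their AlphaFold2 dimer inter-PAE exceeded 15.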

[2] = folding stability dG unfold from chymotrypsin proteolysis; higher = more stable
Method in brief: as §1

[3] = folding stability dG unfold (combined trypsin and chymotrypsin); higher = more stable
Method in brief: as §1

Sequence	folding stability dG unfold [1] [kcal/mol]	folding stability dG unfold [2] [kcal/mol]	folding stability dG unfold [3] [kcal/mol]
SAGGSAGGSAGGITPEYVERARKEAQDQYPPGKEREIIIRNPDNGKEITIRYTPDKIEIMSAGGSAGGSAGG [r7_45_TrROS]	0.0182 ± 0.12	-0.289 ± 0.16	-0.147 ± 0.24
SAGGSAGGSAGGKAKIVDVKIEKEGNTVTIEVKIEVDGKLIATAKVRFTGPDGKLEIEIESAGGSAGGSAGG [r7_133_TrROS_Hall]	3.25 ± 0.16	2.9 ± 0.27	3.15 ± 0.15
SAGGSAGGSAGGKDPYLALKTVRVRLVRDYLLGDKPVKTELIEEADVPVLIVFEPEELLSAGGSAGGSAGGS [r10_492_TrMRF]	0.0714 ± 0.069	0.536 ± 0.086	0.441 ± 0.053
SAGGSAGGSAGGKDVRITVSPNNMRISIWKRDPNDGKWKPIGTIPMPPNDPDKALDQLKSAGGSAGGSAGGS [r10_275_TrROS]	-0.216 ± 0.18	-1.13 ± 0.91	-0.446 ± 0.18
SAGGSAGGSAGGKEEEARKLAEELAKELGLEIVEVKVERTEKEVKVTIRIKKDGKEIEFSAGGSAGGSAGGS [r10_161_TrROS_Hall]	1.09 ± 0.048	1.36 ± 0.025	1.29 ± 0.12
SAGGSAGGSAGGKEITIMMPSPEAIKKLLPPGWKITNIEPIGRDPEDGYPYYMITFKPDSAGGSAGGSAGGS [r10_256_TrROS]	1.43 ± 0.018	1.11 ± 0.042	1.3 ± 0.057
SAGGSAGGSAGGKEKKELYVVIKVDKNMTPEEIAEKLKKEFNVDKVEVEVREDGYLVVKVSAGGSAGGSAGG [r7_273_TrROS_Hall]	1.03 ± 0.098	1.74 ± 0.084	1.62 ± 0.19
SAGGSAGGSAGGKIIVYNPETGKPEEVSPEDLEEIIKNTPGPLILKVGEGEIELNAKDISAGGSAGGSAGGS [r10_839_TrMRF]	0.807 ± 0.051	0.862 ± 0.067	0.828 ± 0.12
SAGGSAGGSAGGKIKDAEIVSVEYDPETGVLYMEVKLEDGSTYRIRFDLKTNKLTIEPVSAGGSAGGSAGGS [r10_674_TrROS_Hall]	3.29 ± 0.36	4.91 ± 0.2	4.56 ± 0.3
SAGGSAGGSAGGKIKLTVEKTEDGYLRVTAEDEDTKETVVITLPKGTTLEEALKLLKELSAGGSAGGSAGGS [r10_825_TrROS_Hall]	3.14 ± 0.11	3.08 ± 0.14	3.19 ± 0.17
SAGGSAGGSAGGKKIHLFMPKEVAEKFAKELEKLGIDSKEVEIEFHEVDIPPSLPPELKSAGGSAGGSAGGS [r10_602_TrMRF]	-0.0238 ± 0.15	-0.594 ± 0.48	-0.0833 ± 0.27
SAGGSAGGSAGGKKIIKVNLRIYDPVNPKVTVLPIEAPFDEIIKIAKEIAAPDQVVEISSAGGSAGGSAGGS [r10_397_TrMRF]	-0.844 ± 0.16	-0.506 ± 0.097	-0.654 ± 0.16
SAGGSAGGSAGGKKIKILVKIKDLKKLKGLKPGDLALIEIEVEVKPEKKTEKKYTYKKKSAGGSAGGSAGGS [r10_1233_TrROS_Hall]	0.432 ± 0.23	0.908 ± 0.29	0.693 ± 0.21
SAGGSAGGSAGGKKKYIVVKVKVEVDENGNVTITLPNGKKITIPKEKVEVKPDGYLVIKLSAGGSAGGSAGG [r7_684_TrROS_Hall]	1.98 ± 0.07	2.05 ± 0.028	2.05 ± 0.087
SAGGSAGGSAGGKKTITVTVKINGKTYRVEIKYDEKTKKVTIKIEVNGKKYEFEFELKDSAGGSAGGSAGGS [r10_438_TrROS_Hall]	4.73 ± 0.96	4.42 ± 0.25	4.54 ± 0.36
SAGGSAGGSAGGKKTLVIEFDLEPGGLTAEEIEELLRPYTGKEVRLETHPDGKPVAVVEGSAGGSAGGSAGG [r7_330_TrMRF]	-0.488 ± 0.1	-0.616 ± 0.44	-0.393 ± 0.16
SAGGSAGGSAGGKKYIIKNKKTNKYIEVDVIEKDGKLYVYDKKTGKVHEVSLKDLEIVPSAGGSAGGSAGGS [r10_28_TrROS_Hall]	1.84 ± 0.088	2.56 ± 0.036	2.33 ± 0.089
SAGGSAGGSAGGKLKPGQKVLVIELKVTKVKTKKDGKKEFEFEITRIEIVEVPEGAKILSAGGSAGGSAGGS [r10_826_TrROS_Hall]	1.78 ± 0.051	1.01 ± 0.051	1.46 ± 0.14

Sequence	folding stability dG unfold [1] [kcal/mol]	folding stability dG unfold [2] [kcal/mol]	folding stability dG unfold [3] [kcal/mol]
SAGGSAGGSAGGKLPPGDIIPMEFEAEFPVYKRDPEGGDWEPIGPMRIDFTIIIRLPPGSAGGSAGGSAGGS [r10_1115_TrROS]	2.5 ± 0.22	2.91 ± 0.14	2.67 ± 0.22
SAGGSAGGSAGGKMWIMIPKNEPINLPPGFDKVEIMTNPDDGYVMIRVDSPEDFKRLLEASAGGSAGGSAGG [r7_172_TrROS]	1.405 ± 0.01	0.866 ± 0.058	1.2 ± 0.065
SAGGSAGGSAGGKPKIEIELTFIDEDGYAYRLRAEIEIDEDGNVHIEVEIEKVPLPEGLSAGGSAGGSAGGS [r10_563_TrROS_Hall]	2.9 ± 0.14	3.28 ± 0.13	3.18 ± 0.21
SAGGSAGGSAGGKPKKVILIEADTLEEALAAAEALAPPGAKVTVTLVERDGKLYLLVTVDSAGGSAGGSAGG [r7_877_TrROS_Hall]	2.16 ± 0.045	3.75 ± 0.046	3.351 ± 0.028
SAGGSAGGSAGGKPKTVKIIRDKKTNRLLIERDGKVYEFDVDNVEVREVTLEDLKEEELSAGGSAGGSAGGS [r10_512_TrROS_Hall]	0.576 ± 0.14	1.2 ± 0.045	0.88 ± 0.14
SAGGSAGGSAGGKPKVIEIEITDKNGKKRKIKLIEKDGYVYLYDEKTGKLVKKFKLKDLSAGGSAGGSAGGS [r10_589_TrROS_Hall]	3.04 ± 0.097	3.92 ± 0.051	3.61 ± 0.14
SAGGSAGGSAGGKPKVIVIEGMSLEEIKALLAELPEDVTIVVRLPDGSTRTLTVRLPEPSAGGSAGGSAGGS [r10_514_TrROS_Hall]	1.78 ± 0.077	1.13 ± 0.077	1.48 ± 0.095
SAGGSAGGSAGGKPKYKIVEIKYDKETKTVTLKIKLENGETVEITVPPGTSLEDILKALSAGGSAGGSAGGS [r10_984_TrROS_Hall]	3.57 ± 0.098	3.9 ± 0.061	3.83 ± 0.055
SAGGSAGGSAGGKPVKLEISFDKETNTITIKAVDEENKTVTETTIKVTFLPPPPPPPPKSAGGSAGGSAGGS [r10_331_TrROS_Hall]	1.09 ± 0.12	2.14 ± 0.37	2.03 ± 0.48
SAGGSAGGSAGGKRTLLIRVPPGASVEQVLEELKRLLPPGAKITVELDPETRTLRVTIDSAGGSAGGSAGGS [r10_163_TrROS_Hall]	3.28 ± 0.075	4.12 ± 0.057	3.89 ± 0.12
SAGGSAGGSAGGKRYRVTELEVVEVDGEKRLLVRFEDGRTQAFPAGAKISPDGAEIELLPSAGGSAGGSAGG [r7_931_TrROS_Hall]	0.469 ± 0.042	1.44 ± 0.033	1.14 ± 0.04
SAGGSAGGSAGGKSKTLRLYNKDTGVAVTVTLNEDGSLSVTVEPLPPPPPVEEKVVVKGSAGGSAGGSAGGS [r10_664_TrROS_Hall]	0.527 ± 0.071	1.37 ± 0.13	1.03 ± 0.11
SAGGSAGGSAGGKVAIVTASPEKAKEIAKKAGIKDVIIIPKNKPELLGPNVDKVILVAEKSAGGSAGGSAGG [r7_381_TrMRF]	-0.629 ± 0.066	-1.94 ± 0.33	< -1
SAGGSAGGSAGGKVLKIKFSSIEEILEYIKNNDSVTIVVLDENDNPIGTITVEVKPGSLSAGGSAGGSAGGS [r10_193_TrMRF]	1.67 ± 0.046	2.89 ± 0.039	2.5 ± 0.092
SAGGSAGGSAGGKVTIEFPTSRVELYPLPGPFVLAEVSFPNRKLLALAHPDGDEILILPISAGGSAGGSAGG [r7_683_TrMRF]	0.929 ± 0.028	1.05 ± 0.082	1.07 ± 0.042
SAGGSAGGSAGGKVYFLPDNTVVYELPDGLYLAVTVNENGEPSRTLYRVLSPTEIKPFPLSAGGSAGGSAGG [r7_423_TrMRF]	1.65 ± 0.024	1.66 ± 0.034	1.72 ± 0.035
SAGGSAGGSAGGKWRPITFPFPDGWYLQIYMNPDGDVKAEIYNPDGKPVEKTFPPGEPIFSAGGSAGGSAGG [r7_215_TrROS]	1.25 ± 0.027	1.67 ± 0.02	1.55 ± 0.054
